Our source for the Kd values is the Immune Epitope Database (IEDB).

Experiment [1] concerns the target HLA-B*44:03. Briefly: IEDB peptide-MHC binding, purified MHC/competitive/radioactivity; filed as Kd, often an IC50 or EC50 that approximates it; ≥ and ≤ were set here for values at or beyond the usual limits of such assays.
Experiment [2] addresses HLA-A*03:01. Briefly: IEDB peptide-MHC binding, purified MHC/competitive/fluorescence; filed as Kd, often an IC50 or EC50 that approximates it; ≥ and ≤ were set here for values at or beyond the usual limits of such assays.
The target of experiment [3] is HLA-A*24:03. Briefly: IEDB peptide-MHC binding, purified MHC/direct/fluorescence; filed as Kd, often an IC50 or EC50 that approximates it; ≥ and ≤ were set here for values at or beyond the usual limits of such assays.
Experiment [4] concerns the target HLA-A*26:01. Briefly: IEDB peptide-MHC binding, purified MHC/competitive/fluorescence; filed as Kd, often an IC50 or EC50 that approximates it; ≥ and ≤ were set here for values at or beyond the usual limits of such assays.
For experiment [5], the target named is HLA-B*44:02. Briefly: IEDB peptide-MHC binding, purified MHC/direct/fluorescence; filed as Kd, often an IC50 or EC50 that approximates it; ≥ and ≤ were set here for values at or beyond the usual limits of such assays.
Experiment [6] deals with HLA-B*18:01. The experiment is described as above.
Experiment [7] concerns the target HLA-B*40:01. Description: IEDB peptide-MHC binding, purified MHC/competitive/radioactivity; filed as Kd, often an IC50 or EC50 that approximates it; ≥ and ≤ were set here for values at or beyond the usual limits of such assays.
Experiment [8] concerns the target HLA-A*02:01. Briefly: IEDB peptide-MHC binding, purified MHC/direct/fluorescence; filed as Kd, often an IC50 or EC50 that approximates it; ≥ and ≤ were set here for values at or beyond the usual limits of such assays.
The target in experiment [9] is HLA-B*08:01. The description is as above.
The target in experiment [10] is HLA-A*31:01. The experiment is described as above.
Experiment [11] addresses HLA-A*26:01. Described as above.
The target of experiment [12] is HLA-A*11:01. The experiment is described as above.
For experiment [13], the target named is HLA-B*15:01. The description is as above.
The target of experiment [14] is HLA-B*27:05. The description is as above.
The target of experiment [15] is HLA-B*58:01. Described as above.
The target of experiment [16] is HLA-B*07:02. The description is as above.
Experiment [17] concerns the target HLA-A*01:01. Described as above. The conditions noted are these: source organism: Bacillus anthracis.
For experiment [18], the target named is HLA-A*03:01. The experiment is described as above.
Experiment [19] addresses HLA-B*40:01. Described as above.
Experiment [20] deals with HLA-A*69:01. The experiment is described as above.
Experiment [21] concerns the target HLA-B*51:01. Description: IEDB peptide-MHC binding, purified MHC/competitive/radioactivity; filed as Kd, often an IC50 or EC50 that approximates it; ≥ and ≤ were set here for values at or beyond the usual limits of such assays.
The target of experiment [22] is HLA-B*54:01. The description is as above.
The target of experiment [23] is HLA-A*31:01. The experiment is described as above. Particulars: source organism: Vaccinia virus WR.
The target in experiment [24] is HLA-A*11:01. Described as above. Particulars: source organism: Vaccinia virus WR.
Experiment [25] addresses HLA-A*68:01. Described as above. Particulars: source organism: Vaccinia virus WR.
Experiment [26] has as its target HLA-B*53:01. The description is as above.
Experiment [27] deals with HLA-A*33:01. The description is as above. Particulars: source organism: Vaccinia virus WR.
Experiment [28] addresses HLA-B*07:02. Described as above.
Experiment [29] deals with HLA-A*03:01. The experiment is described as above. Particulars: source organism: Vaccinia virus WR.
In experiment [30] the target is HLA-B*35:01. Described as above.
Experiment [31] concerns the target HLA-B*15:01. The description is as above. The conditions noted are these: source organism: Dengue virus 1 Brazil/97-11/1997.
The mark [32] stands for this setting: source organism: Mammarenavirus lassaense.
[33] abbreviates: source organism: dengue virus type 2.
The mark [34] stands for this setting: source organism: Dengue virus 3 Martinique/1243/1999.
[35] abbreviates: source organism: Bacillus anthracis.
Where [36] appears, read: source organism: Vaccinia virus WR.
The mark [37] stands for this setting: source organism: Aggregatibacter actinomycetemcomitans.
The mark [38] stands for this setting: source organism: Influenza A virus (A/SW/MN/3227/00(H1N2)).
The mark [39] stands for this setting: source organism: Dengue virus 2 Jamaica/1409/1983.
Setting [40] is: source organism: Dengue virus 1 Brazil/97-11/1997.
Setting [41] is: source organism: Mammarenavirus juninense.
The mark [42] stands for this setting: source organism: Salmonella enterica.
The mark [43] stands for this setting: source organism: Triticum aestivum.
Where [44] appears, read: source organism: SARS coronavirus Tor2.

Bounds are passed on as bounds.

As to ADTGCAVSW, the Kd in [1] (source organism: Dengue virus 4 Philippines/H241/1956) came out at 0.224 µM.
Consider AMSTWSFYH, for which the Kd in [2] (source organism: Yersinia pestis Nepal516) was 0.0133 µM.
With AVLPRDMVF, in experiment [3] (setting [32]), the dissociation constant Kd came out at 0.11 µM.
AWENTVVDL had a Kd in experiment [3] (setting [32]) of 1.5 µM.
In experiment [4] (source organism: Escherichia coli), DVSEQLELI had a Kd of no less than 20 µM.
For EEEQTLTIL, the dissociation constant (Kd) is no less than 20 µM in experiment [5] (setting [33]) and 4.02 µM in experiment [6] (setting [33]).
For EESRTIRVL, the Kd in experiment [1] (setting [34]) worked out at 0.0302 µM; in [7] (setting [34]) it was 0.249 µM.
Regarding FIFGKMGAG, the dissociation constant (Kd) is no less than 20 µM in experiment [8] (setting [35]); no less than 20 µM in [5] (setting [35]); no less than 20 µM in [9] (setting [35]); no less than 20 µM in experiment [10] (setting [35]); 5.37 µM in experiment [11] (setting [35]); no less than 20 µM in [12] (setting [35]). Further, the equilibrium dissociation constant (Kd) in [13] (setting [35]), in experiment [14] (setting [35]), in experiment [15] (setting [35]), in [16] (setting [35]), in experiment [17] and in [18] (setting [35]) was no less than 20 µM throughout. The Kd in experiment [19] (setting [35]) and in experiment [20] (setting [35]) was no less than 20 µM in each case.
Regarding FSFGDYFKK, the Kd in experiment [2] (source organism: Fusobacterium vincentii ATCC 49256) was determined as 0.0395 µM.
For HVDGKILFV, the Kd in experiment [21] (setting [36]) is no less than 68.5 µM; in experiment [22] (setting [36]), no less than 78.1 µM; in experiment [23], no less than 40.5 µM; in experiment [24], no less than 72.3 µM; in [25] it was no less than 77.7 µM; in experiment [26] (setting [36]) it was 11.5 µM. The Kd is no less than 77.7 µM in experiment [27], no less than 77.5 µM in experiment [28] (setting [36]), 3.14 µM in [29] and no less than 77.4 µM in [30] (setting [36]).
KLFFQVIAK showed a Kd in experiment [2] (source organism: Yersinia pestis Antiqua) of 0.0065 µM.
With KYDDRIQSQ, the Kd in experiment [8] (setting [37]), in experiment [9] (setting [37]), in experiment [10] (setting [37]), in [11] (setting [37]), in experiment [12] (setting [37]) and in [13] (setting [37]) was no less than 20 µM in each case. The Kd in [14] (setting [37]), in experiment [15] (setting [37]), in experiment [3] (setting [37]), in experiment [16] (setting [37]), in [18] (setting [37]) and in experiment [19] (setting [37]) was no less than 20 µM throughout. In addition, the Kd in experiment [20] (setting [37]) is no less than 20 µM.
Consider LEESHPGIF, for which the Kd is no less than 20 µM in [5] (setting [38]) and 0.0853 µM in experiment [19] (setting [38]).
For LEFFLIVLLI, the dissociation constant Kd stood at 2.48 µM in experiment [1] (setting [39]) and 0.65 µM in experiment [7] (setting [39]).
Regarding MEHKYSWKS, the equilibrium dissociation constant (Kd) in experiment [1] (setting [40]) was 1 µM.
Take MPGVLSYVV: the equilibrium dissociation constant (Kd) came out at 0.208 µM in experiment [21] (setting [41]); 0.000507 µM in [22] (setting [41]); 0.187 µM in [26] (setting [41]); 1.03 µM in experiment [28] (setting [41]); 0.0222 µM in experiment [30] (setting [41]).
MPSACANGWI: the dissociation constant Kd was no less than 43.5 µM in [21] (setting [36]); 5.4 µM in [22] (setting [36]); 5.24 µM in experiment [26] (setting [36]); no less than 31.4 µM in experiment [28] (setting [36]); no less than 69.9 µM in experiment [30] (setting [36]).
On to MVFVELPSK, for which the dissociation constant Kd in experiment [2] (source organism: Bacillus anthracis str. A0488) was 0.101 µM.
NERWFREVI: the values for the Kd in experiment [6] (setting [42]) and in experiment [19] (setting [42]) were 0.0052 µM and 0.653 µM, respectively.
NSIPAVIGY yielded a Kd in experiment [4] (source organism: Kurkino virus) of 0.42 µM.
As for PPYCTIAPVGI, the equilibrium dissociation constant (Kd) is no less than 41.3 µM in [21] (setting [43]); no less than 27.7 µM in experiment [22] (setting [43]); no less than 63.7 µM in experiment [26] (setting [43]); 4.47 µM in experiment [28] (setting [43]); no less than 63.7 µM in experiment [30] (setting [43]).
In the case of QPFPSQQPYL, the equilibrium dissociation constant (Kd) in [21] (setting [43]) was 0.0103 µM; in experiment [22] (setting [43]) it was 10.8 µM; in experiment [26] (setting [43]), 8.54 µM; in experiment [28] (setting [43]), 17.5 µM; in experiment [30] (setting [43]) it was 0.433 µM.
Take QQVPFCSHHF: the Kd in experiment [31] was determined as 0.0139 µM; in experiment [1] (setting [40]) it was 0.272 µM.
In the case of RLNPMHQLLR, in experiment [2] (source organism: Influenza A virus H3N2), the Kd is 0.805 µM.
The sequence RMKWMMAMRY registered a Kd in experiment [2] (source organism: Influenza A virus (A/chicken/Fujian/25/00(H9N2))) of 0.131 µM.
As to RPLMESELVI, the dissociation constant Kd in [21] (setting [44]) was 0.0329 µM; in experiment [22] (setting [44]), no less than 46 µM; in [26] (setting [44]), 0.217 µM; in experiment [28] (setting [44]), 0.666 µM; in experiment [30] (setting [44]), 0.395 µM.
In experiment [2] (source organism: Canarypox virus), SVYGLMGFH came in with a Kd of 0.0292 µM.
In the case of TPTIEDDKIV, the Kd in experiment [21] (setting [36]) is 10.1 µM; in experiment [22] (setting [36]), 3.15 µM; in experiment [26] (setting [36]), no less than 29 µM; in experiment [28] (setting [36]), 19.7 µM; in experiment [30] (setting [36]) it was no less than 52.2 µM.
On to VEEDIRWKF, for which, in [6] (source organism: Bacillus cereus), the Kd was found to be 0.0192 µM.

What is called Kd is the concentration at which binding is half-saturated.
